To fix the notation:
T1: NTCP consensus-mutant construct used for cryo-electron microscopy structure determination (NTCPEM) (human (consensus design), UniProt Q14973 2-328)
T1 chain: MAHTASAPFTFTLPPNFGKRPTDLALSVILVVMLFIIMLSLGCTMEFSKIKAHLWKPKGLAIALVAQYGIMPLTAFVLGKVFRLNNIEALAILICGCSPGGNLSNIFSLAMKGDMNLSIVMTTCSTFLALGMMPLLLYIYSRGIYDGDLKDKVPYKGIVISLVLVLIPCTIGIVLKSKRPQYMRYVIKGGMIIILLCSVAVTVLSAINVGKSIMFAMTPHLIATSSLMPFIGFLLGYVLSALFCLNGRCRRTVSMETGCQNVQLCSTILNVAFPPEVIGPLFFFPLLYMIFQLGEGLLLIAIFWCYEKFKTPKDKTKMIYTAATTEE

T2: N-glycosylation knocked-out NTCP (NTCPWT_KOG) (human, UniProt Q14973 1-349)
T2 chain: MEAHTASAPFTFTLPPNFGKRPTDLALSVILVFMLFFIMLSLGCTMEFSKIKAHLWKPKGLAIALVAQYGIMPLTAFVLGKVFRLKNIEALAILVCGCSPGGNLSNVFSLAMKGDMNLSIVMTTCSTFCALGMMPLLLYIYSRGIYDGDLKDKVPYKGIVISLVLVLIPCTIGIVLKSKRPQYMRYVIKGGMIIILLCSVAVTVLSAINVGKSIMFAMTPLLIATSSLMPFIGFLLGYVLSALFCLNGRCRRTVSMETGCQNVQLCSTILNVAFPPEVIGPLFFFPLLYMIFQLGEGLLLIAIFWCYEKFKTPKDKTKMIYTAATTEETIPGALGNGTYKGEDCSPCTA

T3: human wild type Sodium taurocholate co-transporting polypeptide (NTCPWT) (human, UniProt Q14973 1-349)
T3 construct: Transiently expressed in HEK293 cells; also called SLC10A1; human wildtype NTCP
T3 sequence: T2 chain with T5N, T11N

B1: NbNTCP_87 (VHH)
VHH: QVQLVESGGGLVQAGGSLRLSCAVSGRTTANYNMGWFRQAPGKEREFVAGIKWSSGSTYVADSAKGRFTISRDNAKNSVYLQMDSLKPEDTALYYCAANYYGVSWFLISPSSYDYWGQGTQVTVSS
notes: Family 21; expressed in E. coli periplasm; also called Nb87
B2: NbNTCP_91- N27D variant (VHH)
VHH: QVQLVESGGGLVEAGGSLRLSCAASTDLRSYAMAWFRQAPGKEREFVSFINWNYGNTRYADSVKGRFTISRDNAKITVYLQMNSLKPEDTAVYYCAAATIGRLAGIDSTTLYDYWGQGTQVTVSS
notes: Single mutant of Nb91; also called Nb91 N27D
B3: NbNTCP_91- R29N variant (VHH)
VHH: B2 VHH with D27N, R29N
notes: Single mutant of Nb91; also called Nb91 R29N
B4: NbNTCP_91- R29G variant (VHH)
VHH: B2 VHH with D27N, R29G
notes: Single mutant of Nb91; also called Nb91 R29G; NbNTOP_91- R29G variant
B5: NbNTCP_91-N53D variant (VHH)
VHH: B2 VHH with D27N, N53D
notes: Single mutant of Nb91; also called Nb91 N53D
B6: NbNTCP_91- L103N variant (VHH)
VHH: B2 VHH with D27N, L103N
notes: Single mutant of Nb91; also called Nb91 L103N
B7: NbNTCP_91- N27E variant (VHH)
VHH: B2 VHH with D27E
notes: Single mutant of Nb91; also called Nb91 N27E
B8: NbNTCP_91- N27Q variant (VHH)
VHH: B2 VHH with D27Q
notes: Single mutant of Nb91; also called Nb91 N27Q
B9: NbNTCP_91- R29S variant (VHH)
VHH: B2 VHH with D27N, R29S
notes: Single mutant of Nb91; also called Nb91 R29S
B10: NbNTCP_87 - S55Q variant (VHH)
VHH: B1 VHH with S55Q
notes: Single mutant of Nb87; also called Nb87 S55Q
B11: NbNTCP_87 - S111R variant (VHH)
VHH: B1 VHH with S111R
notes: Single mutant of Nb87; also called Nb87 S111R
B12: NbNTCP_87 - S55E variant (VHH)
VHH: B1 VHH with S55E
notes: Single mutant of Nb87; also called Nb87 S55E
B13: NbNTCP_87 -A30Q variant (VHH)
VHH: B1 VHH with A30Q
notes: Single mutant of Nb87; also called Nb87 A30Q

Numbering of substitutions follows the chain as printed. Numbers in names are those of the source.

One assay concerns the target T1, NTCP consensus-mutant construct used …. The assay can be described thus: cell-based or functional assay.
For the molecule B1, the “half-maximal inhibitory concentrations (IC50) of Na+-induced fluorescent-substrate uptake by cells expressing NTCPEM” value was roughly 180 nM.

A further assay has as its target T2, N-glycosylation knocked-out NTCP …. Kind of assay: competition with Nb91, substrate uptake read-out in HEK293 cells expressing NTCPWT-KOG, Nbs at 10 µM.
In the case of B2, the binding result was “binds”.

For the molecule B3, the binding result is reported as “binds”.

Regarding B4, the binding result is recorded as “binds”.

Consider B5, for which the binding result was “binds”.

Regarding B6, the binding result is recorded as “binds”.

On to B7, for which the binding result was “binds”.

On to B8, for which the binding result was “binds”.

With B9, the binding result is “binds”.

A further assay has as its target T3, human wild type Sodium taurocholate …. Kind of assay: cell surface labelling, 20 µM Nb87 and 10 µM (AntiC)2-mCherryXL, fluorescence microscopy.
Protocol: (§1) Adherent HEK293T cells were seeded at 0.3×10⁶/mL using 500 μl per well in a 24-well plate and incubated for 2 days. 5 μg of cDNA coding for NTCP, or control neurotransmitter (EAAT1) was transfected as follows: (1) 5 μg DNA was mixed with 50 μl Opti-MEM and incubated for 5 min; (2)² μl lipofeactamine was mixed with 50 μl of Opti-MEM and incubated for 5 min: (3) DNA and lipofectamine solutions were mixed in 1:1 ratio and incubated for 20 min. 100 μl of the mixture was added to each well. After incubation for 6-8 h the medium was changed to DMEM medium, and incubated for 2 days post transfection. […] Excess of primary unlabeled Nb was removed and 10 μM of the secondary labelled Nb ((AntiC)2-mCherryXL) was added following a 1 h incubation. Cells were washed once with fresh medium prior to detection of fluorescence on an inverted microscope.
For B1, the binding result is reported as “binds”.

The target of a further assay is T4, excitatory amino acid transporter, EAAT1 (UniProt P43003 1-542, limits assumed).
T4 construct: whole, on cells; Negative control expressed on HEK293T cells; also called unrelated neurotransmitter transporter
T4 sequence (P43003 whole entry): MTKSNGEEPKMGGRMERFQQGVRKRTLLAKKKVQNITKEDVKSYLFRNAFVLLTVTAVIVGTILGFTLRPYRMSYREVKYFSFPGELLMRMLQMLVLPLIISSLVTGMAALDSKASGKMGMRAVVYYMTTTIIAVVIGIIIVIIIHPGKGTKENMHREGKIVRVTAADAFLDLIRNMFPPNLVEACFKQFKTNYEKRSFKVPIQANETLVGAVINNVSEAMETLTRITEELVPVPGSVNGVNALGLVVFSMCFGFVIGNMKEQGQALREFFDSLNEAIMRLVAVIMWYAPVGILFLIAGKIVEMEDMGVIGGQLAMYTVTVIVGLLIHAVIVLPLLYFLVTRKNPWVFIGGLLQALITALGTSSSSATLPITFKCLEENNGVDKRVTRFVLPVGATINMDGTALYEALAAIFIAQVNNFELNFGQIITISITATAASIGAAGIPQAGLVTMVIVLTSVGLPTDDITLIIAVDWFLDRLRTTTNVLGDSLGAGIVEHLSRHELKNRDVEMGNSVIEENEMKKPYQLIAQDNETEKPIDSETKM
Kind of assay: cell surface labelling of transfected HEK293T cells, Nb87 as primary Nb and (AntiC)2-mCherryXL as secondary Nb, fluorescence microscopy.
Protocol: as §1
For the molecule B1, the binding result is “no binding (tested: 20 µM Nb87)”.

The target of a further assay is T2, N-glycosylation knocked-out NTCP …. Kind of assay: competition with Nb87, substrate uptake read-out in HEK293 cells expressing NTCPWT-KOG, Nbs at 2 µM.
In the case of B10, the binding result is “binds”.

B11: the binding result is listed as “binds”.

As for B12, the binding result was “binds”.

Consider B13, for which the binding result is on record as “binds”.

These data come from patent publication US20250304664A1 (VIB VZW, published 2025).
